test: yeast display, Sf9 membrane polyspecificity reagent, FACS + sequencing; frameworks hold sequencing errors
In short: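 Galactose-induced (36–48 hours) yeast carrying a synthetic nanobody display library were exposed to 10% biotinylated, detergent-solubilized Sf9 membrane reagent at 4 °C for 1 hour. FACS followed streptavidin microbead enrichment, using low and high (top ~1%) gates for expression (anti-HA) and reagent binding (streptavidin). Colony PCR, MiSeq 2 × 250 sequencing and CDR-length filtering followed. Labels for polyreactivity reflect the gate of origin.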

Sequence | polyreactivity (PSR sort gate)
QVQLVESGGGLVQAGGSLRLSCAASGRTFEPNDMGWYRQAPGKERELVAAISSSDGSTYYADSVKGRFTISRDNAKNTVYLQMNSLKPEDTALYYCAADAGYLYDWPYNYYYWGQGTQVTVSS | low polyreactivity
QVQLVESGGGLVQAGGSLRLSCAASGRTFEQNVMGWYRQAPGTERELVAAITTGGSTNYADSVKGRFTISRDNAKNTVYLQMNSLKPEDTAVYYCAADRYLGGDYDYWGQGTQVTVSS | low polyreactivity
QVQLVESGGGLVQAGGSLRLSCAASGRTFERYAMGWYRQAPGQERELVAGITGRGGRTYYADSVKGRFTISRDNAKNTVYLQRNSLKPEDTAVYYCNKDTWVIHNYRYDYWGQGTQVTVSS | low polyreactivity
QVQLVESGGGLVQAGGSLRLSCAASGRTFEYNAMGWYRQAPGKERELVATIRYSGTSTYADSVKGRFTISRDNAKNTVYFQMNSLKPEDTAVYYCAKQVRYYGYKYNYWGQGTQVTVSS | high polyreactivity
QVQLVESGGGLVQAGGSLRLSCAASGRTFEYNDMGWYRQSPGKERELVAAISWRGTSTYYADSVKGRFTISRDNAKNTVYLQMNSLKPEDTAVYYCAADYSYSFYYAYYWGQGTQVTVSS | high polyreactivity
QVQLVESGGGLVQAGGSLRLSCAASGRTFEYNGMGWYSQAPGKEWELVAAITRGGSTYYADSVKGRFTISRDNAKNTVYLQMNSLKPEDTAVYYCAAVVGWSRYKWLEYWGQGTQVTVSS | low polyreactivity
QVQLVESGGGLVQAGGSLRLSCAASGRTFFDYVMGWYRQAPGKERELVAAISTSGTSTYYADSVKGRFTISRDNAKNTVYLHMNSLKPEDTAVYYCAAGNYLYSYGYGYWGQGTQVTVSS | high polyreactivity
QVQLVESGGGLVQAGGSLRLSCAASGRTFFENAKGWYRQAPGKEREFVAAISYNGGSTYYADSVKGRFTISRDNAKNTVYLQMNSLKPEDTAVYYCAADPNYGYDYWGQGTQVTVSS | low polyreactivity
QVQLVESGGGLVQAGGSLRLSCAASGRTFFFNAMGWYRQAPGKERELVARITWSGGSTYYADSVKGRFTISRDNAKNTVYLQMNSLKPEDTAVYYCNTRRFPYDGIEHDYWGQGTQVTVSS | low polyreactivity
QVQLVESGGGLVQAGGSLRLSCAASGRTFFGNAKGWYRQAPGKERELVAAISWRGGSTYYADSVKGRFTISRDNAKKTVYLQMNSLKPEDTAVYYCATGRYGYGYWGQGTQVTVSS | high polyreactivity
QVQLVESGGGLVQAGGSLRLSCAASGRTFFGNAMGWYRQAPGKERELVAVISQGGGSTYYADSVKGRFTISRDNAKNTVYLQMNSLKPEDTAVYYCAKRYPHFGSGQLGGTYNYWGQGTQVTVSS | low polyreactivity
QVQLVESGGGLVQAGGSLRLSCAASGRTFFGYAMGWCRQARGKEREFVAAISGSGGSTYYADSVKGRFTISRDYAKNTVYFKMNSLKPEDTAVYYCNAEYWGEYYYFGQGTQVTVSS | low polyreactivity
QVQLVESGGGLVQAGGSLRLSCAASGRTFFGYAMGWYRQAPGKERELVAAITTSGGSTYYADSVKGRFTISRDNAKNTVYLQMNSLKPEDTAVYYCAARAYYGYYYWGQGTQVTVSS | low polyreactivity
QVQLVESGGGLVQAGGSLRLSCAASGRTFFIYAMGWYRQAPGKERELVAAISNGGSTNYADSVKGRFTISRDYAKNTVYLQMISLKPEDTAVYYCAAQYIGNLRGVFHYEFDWGQGTQVTVSS | high polyreactivity
QVQLVESGGGLVQAGGSLRLSCAASGRTFFLYAMGWYRQAPGKERELVAAITDGGSITYYADSVKGRFTISRDNAKNTVYLQMNSLKPEDTAVYYCAAEYWHVYDGDYWGYDYWGQGTQVTVSS | high polyreactivity
QVQLVESGGGLVQAGGSLRLSCAASGRTFFPYAMGWYRQAPAKEREFVAAITKTDDSTYYADSVKGRFTISRDNAKNTVYLQMNSLKPEDTAVYYCNAGDTQIRFYYWGQGTQVTVSS | low polyreactivity
QVQLVESGGGLVQAGGSLRLSCAASGRTFFPYAMGWYRQAPGKEREFVAAITKTDDSTYYADSVKGRFTISRDTSKNTVYLQMNSLKPEDTAVYYCNAGDTQMRFYYGGQGTQVTVSS | low polyreactivity
QVQLVESGGGLVQAGGSLRLSCAASGRTFFPYAMGWYRQAPGKERELVAAISFRGGRTYYADSVKGRFTISRDNAKNTVYLQMNSLKPEDTAVYYCNKLGTRVYEMDYWGQGTQVTVSS | high polyreactivity
QVQLVESGGGLVQAGGSLRLSCAASGRTFFQYAMGWYRQPPGKARELVAAIRWSDSTYYADSVKGRFTISRDNAKNTVYLQMNSLKPADTAVYYCAAPRVSQYSTKKYDYWGQGTQVTVSS | low polyreactivity
QVQLVESGGGLVQAGGSLRLSCAASGRTFFRYAMGWYRQAPGKERELVAAISSRGGSTYYADSVKGRFTISRDNAKNTVYLQMNSLKPEDTAVYYCNAAAFINFILYDYWGQGTQVTVSS | high polyreactivity
QVQLVESGGGLVQAGGSLRLSCAASGRTFFRYAMGWYRQAPGKERELVADISKGGGSTYYADSVKGRFTISRDNAKNTVYLQMNSLKPEDTAVYYCAADQYYERDNFGAERYYWGQGTQVTVSS | high polyreactivity

Sequence | polyreactivity (PSR sort gate)
QVQLVESGGGLVQAGGSLRLSCAASGRTFFSFNAMGWYRQAPGKERELVAAIDGDGGITYYADSVKGRFTISRDNAKNTVYLQMNSLKPEDTAVYYCAAETLFSYAGEDDYWGQGTQVTVSS | low polyreactivity
QVQLVESGGGLVQAGGSLRLSCAASGRTFFSYTMGWSRQAPGKERELVAAISDSDGRTYYADSVKGRFTISRDNAKNTVYLQMNSLKPEDTAVYYCAAVPDKDWSRVRRYLFEDIYWGQGTQVTVSS | low polyreactivity
QVQLVESGGGLVQAGGSLRLSCAASGRTFFTNAMGWYRQAPGKERELVASINSGGNTTYADSVKGRFTISRDNAKNTVYIQMNSLKPEDTAVYYCAAVRSAQRWRRYYYWGQGTQVTVSS | low polyreactivity
QVQLVESGGGLVQAGGSLRLSCAASGRTFFTNTMGWYRQAPGKERELVAAITRSGASTYYADSVKGRFTISRDNAKNTVYLQMNSLKPEDTAVYYCAAQRSKYSTVGKYGYWGQGTQVTVSS | high polyreactivity
QVQLVESGGGLVQAGGSLRLSCAASGRTFFTYAMGWYRQAPGKERELVASITSSGVSTYYADSVKGRFTISRDNAKNTVYLQINRLKPEDTAVYHCNTRYPYYWPIYGYWGQGTQVTVSS | high polyreactivity
QVQLVESGGGLVQAGGSLRLSCAASGRTFFWYVMGWYRKAPGKERELVATISYGGITYYADSVKGRFTISRDNAKNTVYLQMNSLKPEDTALYYCAAKPSRSLYYYWGQGTQVTVSS | high polyreactivity
QVQLVESGGGLVQAGGSLRLSCAASGRTFFYNAMGWYRQAPGKERELVAAISYSGGSTYYADSVKGRFTISRDNAKNTVYLQMNSLKPEDTAVYYCAAYHYARYRTSAGNYYWGQGTQVTVSS | high polyreactivity
QVQLVESGGGLVQAGGSLRLSCAASGRTFFYYAMGWYRQAPGKERELVAAISGRGGSTYYADSVKGRFTISRDNAKNTVYLQMNSLKPVDTAVYFCAAQSPFRRYTSPWYDYWGQGTQVTVSS | high polyreactivity
QVQLVESGGGLVQAGGSLRLSCAASGRTFGANAMGWYRQAPGKERELVATIRRGGSTYYADSVKGRFTISRDNAKNTVYLLMNSLKPEDTAVYYCATQYHSYAKEYDYWGQGTQVTVSS | low polyreactivity
QVQLVESGGGLVQAGGSLRLSCAASGRTFGAYTMGWYRQAPGKERELFAAINWSGGDTYYADSVKGRFTISRDNAKNTVYLQMNSLKPEDTAVYYCNADFGFGYVSLLYEYWGQGTQVTVSS | low polyreactivity
QVQLVESGGGLVQAGGSLRLSCAASGRTFGDYAMGWYRQAPGKERELVAAITIGGSTYYADSVKGRFTISRDNAKNTVYLQMNSLKPEDTAVYYCAATTYSIPSRYDSWGQGTQVTVSS | low polyreactivity
QVQLVESGGGLVQAGGSLRLSCAASGRTFGDYDMGWYRQAPGKERELVAAITSDGTTYYADSVKGRFTISRDNAKNTVYLQMNSLKPEDTAVYYCAADYWYVSWYDYWGQGTQVTVSS | low polyreactivity
QVQLVESGGGLVQAGGSLRLSCAASGRTFGEYAMGWYRQAPGKERELVADITNGSRTYYADSVKGRFTISRDNAKNTVYLQMNSLKPEDTAVYYCAADWWKEVDYWGQGTHVTVSS | low polyreactivity
QVQLVESGGGLVQAGGSLRLSCAASGRTFGFYAMGWYRQAPGKERELVAAISKRGGSTYYADSVKGRFTISRDNAKNTVYLQMNSLKPEDTAVYYCAAVGYYLVKFDYWGQGTQVTVSS | high polyreactivity
QVQLVESGGGLVQAGGSLRLSCAASGRTFGGNAMGWYRQAPGKERELVAAISARAGSTYYADSVKGRFTISRDNAKNTVYLQMNSLKPEDTAVYYCAARRYAYTGGYWGQGTQVTVSS | high polyreactivity
QVQLVESGGGLVQAGGSLRLSCAASGRTFGGNAMGWYRQAPGKERELVAAITWRGGSTYYADSVKGRFTISRDNAKNTVYLQMNSLKPEDTAVYYCNAVRTGKYVKYYRSIFDYWGQGTQVTVSS | high polyreactivity
QVQLVESGGGLVQAGGSLRLSCAASGRTFGGNAMGWYRQAPGKERELVAGINISGGSTNYADTVKGRFTISRDNAKNTVYLQMNSLKPEDTAVYYCNADTAVYAWDDDYWGQGTQVTVSS | low polyreactivity
QVQLVESGGGLVQAGGSLRLSCAASGRTFGGNAMGWYRQAPGKERELVATIRSSSSTNYADSVKGRFTISRDNAKNTVYLQMNSLKPEDTAVYYCARRSQRGIYSMYYWGQGSQVTVSS | low polyreactivity
QVQLVESGGGLVQAGGSLRLSCAASGRTFGGNAMGWYRQAPGKERELVAVIRSTGGSTYYADSVKGRFTISRDTAKNTVYVQMNSLKPEDTAVYYCAKGRGRNFGYWGQGTQVTVSS | high polyreactivity
QVQLVESGGGLVQAGGSLRLSCAASGRTFGGNAMGWYRQAPGKESELVAAISKSGGRTYYADSVKGRFTISRDNAKNTVYLQMNSLKPEDTAVYYCNKVLSVSQAGGFDYWGQGTQVTVSS | high polyreactivity
